According to FireProtDB (doi:10.1021/bi0512400):

Conditions: Capra hircus; pH 7.5; 25 °C; GdnHCl; CD; Tris 20 mM; Ca2+ 10 mM; whole UniProt chain shown

B1: Alpha-lactalbumin wild type, P00712 (protein)
chain: MMSFVSLLLVGILFHATQAEQLTKCEVFQKLKDLKDYGGVSLPEWVCTAFHTSGYDTQAIVQNNDSTEYGLFQINNKIWCKDDQNPHSRNICNISCDKFLDDDLTDDIVCAKKILDKVGINYWLAHKALCSEKLDQWLCEKL
Q: With B1 as the protein, how does the denaturant m value read?
A: 3 kcal/mol/M

Q: And the unfolding free energy?
A: 10.2 kcal/mol
